Data reported in paper doi:10.1101/2020.12.29.424711 (bioRxiv, 2020).

Key:
[1] = molecular target: SARS-CoV-2 receptor binding domain (RBD), as crystallised (SARS-CoV-2, UniProt P0DTC2); test: crystal structure
[2] = molecular target: SARS-CoV-2 RBD, as used in Octet epitope binning and as SPR analyte (SARS-CoV-2, UniProt P0DTC2); test: BLI

B1: ION_300 Fab (Fab, V domains shown)
VH: QVQLVQSGAEVKKPGESLKISCKGSGYSFTSYWIGWVRQMPGKGLEWMGIIYPGDSDTRYSPSFQGQVTISADKSISTAYLQWSSLKASDTAMYYCARHPSPYYYGSGSYSGGFDYWGQGTLVTVSS
VL: DIVMTQSPGTLSLSPGERATLSCRASQSVSSSYLAWYQQKPGQAPRLLIYGASTRATGIPARFSGSGSGTEFTLTISSLQSEDFAVYYCQQYDNWPLMHTFGQGTKLEIK
binding result [1]: binds

B2: ION_300 IgG1 (antibody, V domains shown)
VH: QVQLVQSGAEVKKPGESLKISCKGSGYSFTSYWIGWVRQMPGKGLEWMGIIYPGDSDTRYSPSFQGQVTISADKSISTAYLQWSSLKASDTAMYYCARHPSPYYYGSGSYSGGFDYWGQGTLVTVSS
VL: DIVMTQSPGTLSLSPGERATLSCRASQSVSSSYLAWYQQKPGQAPRLLIYGASTRATGIPARFSGSGSGTEFTLTISSLQSEDFAVYYCQQYDNWPLMHTFGQGTKLEIK
binding result [2]: binds

B3: ION_360 Fab (Fab, V domains shown)
VH: EVQLVQSGGGLVKPGGSLRLSCAASGITVSSNYMSWVRQAPGKGLEWVSVIYSGGSTYYADSVKGRFTISRDNSKNTLYLQMNSLRAEDTAVYYCARGEGGSIVGVTSDYWGQGTLVTVSS
VL: DIQMTQSPSSLSASVGDRVTITCRASQSISRYLNWYQQKPGKAPKLLIYAASSLQSGVPSRFSGSGSETEFTLTISSLHPDDFATYYCQQSYSTLPYTFGQGTKVEIK
binding result [1]: binds
